Series [1] has as its target T1, p58C272-464 (DNA primase regulatory subunit C-terminal domain) (human, UniProt P49643 272-464).
T1 sequence: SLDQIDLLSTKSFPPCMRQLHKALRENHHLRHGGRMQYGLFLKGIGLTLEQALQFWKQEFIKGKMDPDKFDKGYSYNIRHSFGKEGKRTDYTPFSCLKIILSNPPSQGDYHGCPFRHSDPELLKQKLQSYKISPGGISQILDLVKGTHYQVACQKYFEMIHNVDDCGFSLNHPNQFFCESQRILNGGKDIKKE
Put plainly: fluorescence anisotropy; 20 mM MES pH 6.5, 50 mM NaCl, 2 mM DTT (plus 0.05% Tween for FI), 50 nM substrate, 25 C; 15 min incubation at room temperature. Particulars: protein: recombinant; tags: 6xHis tag cleaved with H3C protease; label: 5'-6FAM on DNA template (S4 Dataset says FITC); 12 bp RNA-DNA hybrid; template 5' overhang 4 nt and 3' overhang 6 nt. A general note: Polarisation of emitted light reports the rotation of a fluorescent probe.

The target of series [2] is T2, p58C266-464 (DNA primase regulatory subunit C-terminal domain) (human, UniProt P49643 266-464).
T2 sequence: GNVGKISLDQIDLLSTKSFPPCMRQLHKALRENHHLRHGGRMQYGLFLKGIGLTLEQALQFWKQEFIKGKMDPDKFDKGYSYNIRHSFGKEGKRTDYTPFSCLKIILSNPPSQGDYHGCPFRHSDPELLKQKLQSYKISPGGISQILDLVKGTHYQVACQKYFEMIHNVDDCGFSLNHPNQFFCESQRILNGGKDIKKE
The series is described as above. Particulars: protein: recombinant; tags: 6xHis tag cleaved with H3C protease; label: 5'-6FAM on DNA template (S4 Dataset says FITC); 12 bp RNA-DNA hybrid; template 5' overhang 4 nt and 3' overhang 6 nt.

The target of series [3] is T1, p58C272-464 (DNA primase regulatory …). Nature of the series: fluorescence intensity (Monolith MST instrument); 20 mM MES pH 6.5, 50 mM NaCl, 2 mM DTT (plus 0.05% Tween for FI), 50 nM substrate, 25 C; 15 min incubation at room temperature. Particulars: protein: recombinant; tags: 6xHis tag cleaved with H3C protease; label: 5'-Cy5 on DNA template; 8 bp RNA-DNA hybrid; template 5' overhang 4 nt and 3' overhang 6 nt.

The target in series [4] is T2, p58C266-464 (DNA primase regulatory …). The description is as above. Particulars: protein: recombinant; tags: 6xHis tag cleaved with H3C protease; label: 5'-Cy5 on DNA template; 8 bp RNA-DNA hybrid; template 5' overhang 4 nt and 3' overhang 6 nt.

As usually defined, the Kd is a measure of binding affinity in units of concentration.

B1: FA substrate: 12 nt RNA-primed 22 nt DNA template (DNA:RNA)
RNA: GGACCUCCAGGA
DNA: AAACTCCTGGAGGTCCAACATA
modifications: 5'-triphosphate on RNA primer (RNA printed with T as S5; written here with U)
Regarding B1, the dissociation constant Kd came to 3.6 ± 0.1 µM in series [1] and 2.1 ± 0.1 µM in series [2].

B2: MST/FI substrate: 8 nt RNA-primed 18 nt DNA template (DNA:RNA)
RNA: GGCUCGGA
DNA: AAACTCCGAGCCAACATA
modifications: 5'-triphosphate on RNA primer
On to B2, for which the equilibrium dissociation constant (Kd) in series [3] amounted to 2.7 ± 0.3 µM; in series [4], 3.4 ± 0.5 µM.

(Values after article PMC6298731, “Functional and structural similarity of human DNA primase [4Fe4S] cluster domain constructs”.)
